The values that follow come from patent US20160272693A1 (ZEALAND PHARMA A S, published 2016).

This assay addresses T1, human amylin receptor 3 (hAMYR3), hCTR2 co-expressed with human receptor activity modifying protein 3 (hRAMP3) (human, UniProt P30988 25-474; O60896 24-148).
T1 sequence (looked up) 1: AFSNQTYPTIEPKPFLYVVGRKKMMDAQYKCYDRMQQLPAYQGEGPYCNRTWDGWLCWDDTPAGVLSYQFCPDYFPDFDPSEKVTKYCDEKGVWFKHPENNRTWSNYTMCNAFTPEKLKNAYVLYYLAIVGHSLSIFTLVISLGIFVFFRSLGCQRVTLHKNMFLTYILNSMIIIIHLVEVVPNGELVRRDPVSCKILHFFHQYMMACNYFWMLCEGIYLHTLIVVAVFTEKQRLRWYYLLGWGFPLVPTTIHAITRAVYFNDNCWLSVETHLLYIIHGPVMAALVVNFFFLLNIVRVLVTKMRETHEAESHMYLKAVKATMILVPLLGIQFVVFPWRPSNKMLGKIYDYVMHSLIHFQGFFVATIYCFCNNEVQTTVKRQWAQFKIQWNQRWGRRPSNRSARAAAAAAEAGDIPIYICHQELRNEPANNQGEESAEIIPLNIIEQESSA
T1 sequence (looked up) 2: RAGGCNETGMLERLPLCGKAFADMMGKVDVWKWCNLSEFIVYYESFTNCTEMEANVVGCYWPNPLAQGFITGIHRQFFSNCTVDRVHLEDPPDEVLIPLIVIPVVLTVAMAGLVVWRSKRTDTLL
Briefly: cell-based or functional assay.

*1 amine or outer side, *2 acyl side, *3 side chain or, on linkers, in order; H or OH if unused. Bridges are numbered along the chain shown (N, C = ends). [ ]: non-standard residue; d: D form. The star is where a group is joined. C20 diacid = O=C(O)CCCCCCCCCCCCCCCCCCC(=O)*; γGlu = O=C(O)[C@H](CCC(=O)[*:2])N[*:1]; Hyp = O=C(O)[C@@H]1C[C@@H](O)CN1; NMeI = CC[C@H](C)[C@H](NC)C(=O)O; Sar = CNCC(=O)O

B1: [19CD]-isoGlu-R-C( )-NTAT-C( )-ATQRLADFLQRSSF-Gly(Me)-A-Ile(Me)-LSSTEVGSTTP-NH2 (Compd. 82) (peptide)
peptide: {C20 diacid-γGlu}-RCNTATCATQRLADFLQRSSF[Sar]A[NMeI]LSSTEVGSTTP-NH2
modifications: disulfide 2-7
SMILES: CC[C@H](C)[C@@H](C(=O)N[C@@H](CC(C)C)C(=O)N[C@@H](CO)C(=O)N[C@@H](CO)C(=O)N[C@H](C(=O)N[C@@H](CCC(=O)O)C(=O)N[C@H](C(=O)NCC(=O)N[C@@H](CO)C(=O)N[C@H](C(=O)N[C@H](C(=O)N1CCC[C@H]1C(N)=O)[C@@H](C)O)[C@@H](C)O)C(C)C)[C@@H](C)O)N(C)C(=O)[C@H](C)NC(=O)CN(C)C(=O)[C@H](Cc1ccccc1)NC(=O)[C@H](CO)NC(=O)[C@H](CO)NC(=O)[C@H](CCCNC(=N)N)NC(=O)[C@H](CCC(N)=O)NC(=O)[C@H](CC(C)C)NC(=O)[C@H](Cc1ccccc1)NC(=O)[C@H](CC(=O)O)NC(=O)[C@H](C)NC(=O)[C@H](CC(C)C)NC(=O)[C@H](CCCNC(=N)N)NC(=O)[C@H](CCC(N)=O)NC(=O)[C@@H](NC(=O)[C@H](C)NC(=O)[C@@H]1CSSC[C@H](NC(=O)[C@H](CCCNC(=N)N)NC(=O)CC[C@H](NC(=O)CCCCCCCCCCCCCCCCCCC(=O)O)C(=O)O)C(=O)N[C@@H](CC(N)=O)C(=O)N[C@@H]([C@@H](C)O)C(=O)N[C@@H](C)C(=O)N[C@@H]([C@@H](C)O)C(=O)N1)[C@@H](C)O
Turning to B1, the “hAMYR3 EC50 (nM); cAMP induction” value was determined as 0.53 nM.

B2: [19CD]-isoGlu-R-C( )-NTAT-C( )-ATQRLADFLQRSSF-Gly(Me)-A-Ile(Me)-LSSTEVGSTT-Hyp-NH2 (Compd. 83) (peptide)
peptide: {C20 diacid-γGlu}-RCNTATCATQRLADFLQRSSF[Sar]A[NMeI]LSSTEVGSTT[Hyp]-NH2
modifications: disulfide 2-7
SMILES: CC[C@H](C)[C@@H](C(=O)N[C@@H](CC(C)C)C(=O)N[C@@H](CO)C(=O)N[C@@H](CO)C(=O)N[C@H](C(=O)N[C@@H](CCC(=O)O)C(=O)N[C@H](C(=O)NCC(=O)N[C@@H](CO)C(=O)N[C@H](C(=O)N[C@H](C(=O)N1C[C@H](O)C[C@H]1C(N)=O)[C@@H](C)O)[C@@H](C)O)C(C)C)[C@@H](C)O)N(C)C(=O)[C@H](C)NC(=O)CN(C)C(=O)[C@H](Cc1ccccc1)NC(=O)[C@H](CO)NC(=O)[C@H](CO)NC(=O)[C@H](CCCNC(=N)N)NC(=O)[C@H](CCC(N)=O)NC(=O)[C@H](CC(C)C)NC(=O)[C@H](Cc1ccccc1)NC(=O)[C@H](CC(=O)O)NC(=O)[C@H](C)NC(=O)[C@H](CC(C)C)NC(=O)[C@H](CCCNC(=N)N)NC(=O)[C@H](CCC(N)=O)NC(=O)[C@@H](NC(=O)[C@H](C)NC(=O)[C@@H]1CSSC[C@H](NC(=O)[C@H](CCCNC(=N)N)NC(=O)CC[C@H](NC(=O)CCCCCCCCCCCCCCCCCCC(=O)O)C(=O)O)C(=O)N[C@@H](CC(N)=O)C(=O)N[C@@H]([C@@H](C)O)C(=O)N[C@@H](C)C(=O)N[C@@H]([C@@H](C)O)C(=O)N1)[C@@H](C)O
B2: the “hAMYR3 EC50 (nM); cAMP induction” value amounted to 0.32 nM.

B3: [19CD]-isoGlu-R-C( )-NTAT-C( )-ATQRLADFLQRSSF-Gly(Me)-A-Ile(Me)-LSSTEVGSGTP-NH2 (Compd. 80) (peptide)
peptide: {C20 diacid-γGlu}-RCNTATCATQRLADFLQRSSF[Sar]A[NMeI]LSSTEVGSGTP-NH2
modifications: disulfide 2-7
SMILES: CC[C@H](C)[C@@H](C(=O)N[C@@H](CC(C)C)C(=O)N[C@@H](CO)C(=O)N[C@@H](CO)C(=O)N[C@H](C(=O)N[C@@H](CCC(=O)O)C(=O)N[C@H](C(=O)NCC(=O)N[C@@H](CO)C(=O)NCC(=O)N[C@H](C(=O)N1CCC[C@H]1C(N)=O)[C@@H](C)O)C(C)C)[C@@H](C)O)N(C)C(=O)[C@H](C)NC(=O)CN(C)C(=O)[C@H](Cc1ccccc1)NC(=O)[C@H](CO)NC(=O)[C@H](CO)NC(=O)[C@H](CCCNC(=N)N)NC(=O)[C@H](CCC(N)=O)NC(=O)[C@H](CC(C)C)NC(=O)[C@H](Cc1ccccc1)NC(=O)[C@H](CC(=O)O)NC(=O)[C@H](C)NC(=O)[C@H](CC(C)C)NC(=O)[C@H](CCCNC(=N)N)NC(=O)[C@H](CCC(N)=O)NC(=O)[C@@H](NC(=O)[C@H](C)NC(=O)[C@@H]1CSSC[C@H](NC(=O)[C@H](CCCNC(=N)N)NC(=O)CC[C@H](NC(=O)CCCCCCCCCCCCCCCCCCC(=O)O)C(=O)O)C(=O)N[C@@H](CC(N)=O)C(=O)N[C@@H]([C@@H](C)O)C(=O)N[C@@H](C)C(=O)N[C@@H]([C@@H](C)O)C(=O)N1)[C@@H](C)O
Turning to B3, the “hAMYR3 EC50 (nM); cAMP induction” value was 0.28 nM.

B4: [19CD]-isoGlu-R-C( )-NTAT-C( )-ATQRLAHFLERSSF-Gly(Me)-A-Ile(Me)-LSSTEVGSSTP-NH2 (Compd. 84) (peptide)
peptide: {C20 diacid-γGlu}-RCNTATCATQRLAHFLERSSF[Sar]A[NMeI]LSSTEVGSSTP-NH2
modifications: disulfide 2-7
SMILES: CC[C@H](C)[C@@H](C(=O)N[C@@H](CC(C)C)C(=O)N[C@@H](CO)C(=O)N[C@@H](CO)C(=O)N[C@H](C(=O)N[C@@H](CCC(=O)O)C(=O)N[C@H](C(=O)NCC(=O)N[C@@H](CO)C(=O)N[C@@H](CO)C(=O)N[C@H](C(=O)N1CCC[C@H]1C(N)=O)[C@@H](C)O)C(C)C)[C@@H](C)O)N(C)C(=O)[C@H](C)NC(=O)CN(C)C(=O)[C@H](Cc1ccccc1)NC(=O)[C@H](CO)NC(=O)[C@H](CO)NC(=O)[C@H](CCCNC(=N)N)NC(=O)[C@H](CCC(=O)O)NC(=O)[C@H](CC(C)C)NC(=O)[C@H](Cc1ccccc1)NC(=O)[C@H](Cc1c[nH]cn1)NC(=O)[C@H](C)NC(=O)[C@H](CC(C)C)NC(=O)[C@H](CCCNC(=N)N)NC(=O)[C@H](CCC(N)=O)NC(=O)[C@@H](NC(=O)[C@H](C)NC(=O)[C@@H]1CSSC[C@H](NC(=O)[C@H](CCCNC(=N)N)NC(=O)CC[C@H](NC(=O)CCCCCCCCCCCCCCCCCCC(=O)O)C(=O)O)C(=O)N[C@@H](CC(N)=O)C(=O)N[C@@H]([C@@H](C)O)C(=O)N[C@@H](C)C(=O)N[C@@H]([C@@H](C)O)C(=O)N1)[C@@H](C)O
Take B4: the “hAMYR3 EC50 (nM); cAMP induction” value stood at 0.54 nM.

B5: [19CD]-isoGlu-R-C( )-NTAT-C( )-ATQRLAHFLQRSSF-Gly(Me)-A-Ile(Me)-LSSTEVGSSTP-NH2 (Compd. 85) (peptide)
peptide: {C20 diacid}-[γGlu]RCNTATCATQRLAHFLQRSSF[Sar]A[NMeI]LSSTEVGSSTP-NH2
modifications: disulfide 3-8
SMILES: CC[C@H](C)[C@@H](C(=O)N[C@@H](CC(C)C)C(=O)N[C@@H](CO)C(=O)N[C@@H](CO)C(=O)N[C@H](C(=O)N[C@@H](CCC(=O)O)C(=O)N[C@H](C(=O)NCC(=O)N[C@@H](CO)C(=O)N[C@@H](CO)C(=O)N[C@H](C(=O)N1CCC[C@H]1C(N)=O)[C@@H](C)O)C(C)C)[C@@H](C)O)N(C)C(=O)[C@H](C)NC(=O)CN(C)C(=O)[C@H](Cc1ccccc1)NC(=O)[C@H](CO)NC(=O)[C@H](CO)NC(=O)[C@H](CCCNC(=N)N)NC(=O)[C@H](CCC(N)=O)NC(=O)[C@H](CC(C)C)NC(=O)[C@H](Cc1ccccc1)NC(=O)[C@H](Cc1c[nH]cn1)NC(=O)[C@H](C)NC(=O)[C@H](CC(C)C)NC(=O)[C@H](CCCNC(=N)N)NC(=O)[C@H](CCC(N)=O)NC(=O)[C@@H](NC(=O)[C@H](C)NC(=O)[C@@H]1CSSC[C@H](NC(=O)[C@H](CCCNC(=N)N)NC(=O)CC[C@H](NC(=O)CCCCCCCCCCCCCCCCCCC(=O)O)C(=O)O)C(=O)N[C@@H](CC(N)=O)C(=O)N[C@@H]([C@@H](C)O)C(=O)N[C@@H](C)C(=O)N[C@@H]([C@@H](C)O)C(=O)N1)[C@@H](C)O
For the molecule B5, the “hAMYR3 EC50 (nM); cAMP induction” value is 0.14 nM.

B6: [19CD]-isoGlu-R-C( )-NTAT-C( )-ATQRLADFLQRSSF-Gly(Me)-A-Ile(Me)-LSSTEVGSGT-Hyp-NH2 (Compd. 81) (peptide)
peptide: {C20 diacid-γGlu}-RCNTATCATQRLADFLQRSSF[Sar]A[NMeI]LSSTEVGSGT[Hyp]-NH2
modifications: disulfide 2-7
SMILES: CC[C@H](C)[C@@H](C(=O)N[C@@H](CC(C)C)C(=O)N[C@@H](CO)C(=O)N[C@@H](CO)C(=O)N[C@H](C(=O)N[C@@H](CCC(=O)O)C(=O)N[C@H](C(=O)NCC(=O)N[C@@H](CO)C(=O)NCC(=O)N[C@H](C(=O)N1C[C@H](O)C[C@H]1C(N)=O)[C@@H](C)O)C(C)C)[C@@H](C)O)N(C)C(=O)[C@H](C)NC(=O)CN(C)C(=O)[C@H](Cc1ccccc1)NC(=O)[C@H](CO)NC(=O)[C@H](CO)NC(=O)[C@H](CCCNC(=N)N)NC(=O)[C@H](CCC(N)=O)NC(=O)[C@H](CC(C)C)NC(=O)[C@H](Cc1ccccc1)NC(=O)[C@H](CC(=O)O)NC(=O)[C@H](C)NC(=O)[C@H](CC(C)C)NC(=O)[C@H](CCCNC(=N)N)NC(=O)[C@H](CCC(N)=O)NC(=O)[C@@H](NC(=O)[C@H](C)NC(=O)[C@@H]1CSSC[C@H](NC(=O)[C@H](CCCNC(=N)N)NC(=O)CC[C@H](NC(=O)CCCCCCCCCCCCCCCCCCC(=O)O)C(=O)O)C(=O)N[C@@H](CC(N)=O)C(=O)N[C@@H]([C@@H](C)O)C(=O)N[C@@H](C)C(=O)N[C@@H]([C@@H](C)O)C(=O)N1)[C@@H](C)O
Take B6: the “hAMYR3 EC50 (nM); cAMP induction” value amounted to 0.23 nM.
